Common to all, as to format: cell-based, human
Assay [1] concerns ovarian somatic cells (OSCs). The assay can be described thus: Concentration titration of BMP4, follistatin and FGF2 in OSC induction, qPCR for GATA4 and FOXL2. As to the method:
Various concentration titrations of BMP4, Follistatin and FGF were tested in OSC induction, and the resulting cells were examined for expression of bipotential gonadal markers as well as that of granulosa markers.
The OSCs were induced based on the protocols described in Example 6, but with various concentrations of BMP4. Follistatin and FGF tested.
The OSC induction conditions were first tested by varying the BMP4 concentration. […] The gene expression of resulting cells was tested by qPCR for bi-potential gonadal cell markers (GATA4) as well as for granulosa cell markers (FOXL2) (FIGS. 12A and 12B respectively). Expression of GATA4 increased with higher BMP4 concentration, and FOXL2 expression appeared to peak at 10 ng/ml of BMP4 under the conditions tested.
Four different concentrations of follistatin were then tested in OSC induction, with the concentration of BMP4 kept constant at 20 ng/ml as previously described. The gene expression of resulting cells was tested by qPCR for bi-potential gonadal cell markers (GATA4) as well as for granulosa cell markers (FOXL2) (FIGS. 12C and 12D respectively). […] The generation of mature OSCs were also examined by FOXL2 expression. […] In subsequent experiments, OSC induction in the absence or at lower concentrations of follistatin was further explored.
Five different concentrations of FGF2 were then tested in OSC induction, with the concentration of BMP4 kept constant at 20 ng/mL and follistatin removed (Ong/mL). The gene expression of resulting cells were tested by qPCR for bi-potential gonadal cells (GATA4) as well as for granulosa cells (FOXL2) (FIGS. 12E and 12F respectively). As shown by FIGS. 12E and 12F, both GATA4 expression and FOXL2 expression reached saturation at 20 ng/ml of FGF2.

The test system of assay [2] is ovarian somatic cells (OSCs). Nature of the assay: OSC induction with different BMP isoforms, marker qPCR. Conditions: 20 ng/mL BMP in granulosa double medium. Here is the method: Gonadal somatic cells were induced in granulosa double medium comprising different BMP isoforms, and the expression of bipotential gonadal markers as well as that of granulosa markers were measured in the resulting cells.
The expression of bipotential gonadal markers (WT1, LHX9, GADD45G and GATA4) as well as granulosa markers (FOXL2, NR1H4 and KITLG) were measured by qPCR in the resulting cells.
(In general: In qPCR the cycle at which signal appears reflects the starting amount.)

For assay [3], the system named is ovarian somatic cells (OSCs). Nature of the assay: OSC induction with different FGF family members, marker expression. Conditions: 10 ng/mL FGF in granulosa double medium. As to the method: Fibroblast growth factors (FGFs) are a large family of proteins that are important for signaling events in a wide variety of processes. […] Briefly, gonadal cells were induced in granulosa doublemedium comprising different FGFs, and the expression of bipotential gonadal markers as well as that of granulosa markers were measured in the resulting cells.
The replated cells from the second intermediate population were incubated in the granulosa double medium (also referred to as gonadal induction medium or OSC induction medium) according to Table 18, with the same concentration of either FGF2, 9, 10, 16, 17, 18 or 19. The expression of bipotential gonadal markers (WT1, LHX9, GADD45G and GATA4) as well as granulosa markers (FOXL2, NR1H4 and KITLG) were measured in the resulting cells.

B1: BMP4: BMP isoform in gonadal induction medium (protein, UniProt P12644 293-408, looked up)
Bone morphogenetic protein 4: SPKHHSQRARKKNKNCRRHSLYVDFSDVGWNDWIVAPPGYQAFYCHGDCPFPLADHLNSTNHAIVQTLVNSVNSSIPKACCVPTELSAISMLYLDEYDKVVLKNYQEMVVEGCGCR
As to B1, in assay [1] (OSC induction), the “BMP4 concentration at which FOXL2 expression peaks” value was found to be 10 ng/mL and the “concentration at which the BMP4 effect saturates for OSCs” value was 20 ng/mL. The “expression of GATA4” value in assay [1] (higher BMP4 concentration) is recorded as “increased”.

B2: BMP15: BMP isoform in gonadal induction medium (protein, UniProt O95972 268-392, looked up)
Bone morphogenetic protein 15: QADGISAEVTASSSKHSGPENNQCSLHPFQISFRQLGWDHWIIAPPFYTPNYCKGTCLRVLRDGLNSPNHAIIQNLINQLVDQSVPRPSCVPYKYVPISVLMIEANGSILYKEYEGMIAESCTCR
Regarding B2, in assay [2], the “expression of bipotential gonadal markers (WT1, LHX9, GADD45G, GATA4) compared to BMP4” value is “comparable or higher” and the “expression of granulosa markers (FOXL2, NR1H4, KITLG) compared to BMP4” value is given as “comparable or higher”.

B3: FGF17: fibroblast growth factor family member (protein, UniProt O60258 23-216, looked up)
Fibroblast growth factor 17: TQGENHPSPNFNQYVRDQGAMTDQLSRRQIREYQLYSRTSGKHVQVTGRRISATAEDGNKFAKLIVETDTFGSRVRIKGAESEKYICMNKRGKLIGKPSGKSKDCVFTEIVLENNYTAFQNARHEGWFMAFTRQGRPRQASRSRQNQREAHFIKRLYQGQLPFPNHAEKQKQFEFVGSAPTRRTKRTRRPQPLT
For B3, in assay [3], the “expression of bipotential gonadal markers (WT1, LHX9, GADD45G, GATA4) compared to FGF2” value (shortened to “expression … compared to FGF2”) is recorded as “comparable or higher” and the “expression of granulosa markers (FOXL2, NR1H4, KITLG) compared to corresponding medium” value (“expression … compared to corresponding medium” for short) was “comparable”.

B4: FGF10: fibroblast growth factor family member (protein, UniProt O15520 38-208, looked up)
Fibroblast growth factor 10: QALGQDMVSPEATNSSSSSFSSPSSAGRHVRSYNHLQGDVRWRKLFSFTKYFLKIEKNGKVSGTKKENCPYSILEITSVEIGVVAVKAINSNYYLAMNKKGKLYGSKEFNNDCKLKERIEENGYNTYASFNWQHNGRQMYVALNGKGAPRRGQKTRRKNTSAHFLPMVVHS
As to B4, in assay [3], the “expression … compared to FGF2” value is “comparable or higher” and the “expression … compared to corresponding medium” value was “comparable”.

B5: follistatin: protein component of gonadal induction medium (protein, UniProt P19883 30-344, looked up)
Follistatin: GNCWLRQAKNGRCQVLYKTELSKEECCSTGRLSTSWTEEDVNDNTLFKWMIFNGGAPNCIPCKETCENVDCGPGKKCRMNKKNKPRCVCAPDCSNITWKGPVCGLDGKTYRNECALLKARCKEQPELEVQYQGRCKKTCRDVFCPGSSTCVVDQTNNAYCVTCNRICPEPASSEQYLCGNDGVTYSSACHLRKATCLLGRSIGLAYEGKCIKAKSCEDIQCTGGKKCLWDFKVGRGRCSLCDELCPDSKSDEPVCASDNATYASECAMKEAACSSGVLLEVKHSGSCNSISEDTEEEEEDEDQDYSFPISSILEW
For the molecule B5, the “GATA4 expression on removing follistatin altogether” value in assay [1] (0 ng/mL follistatin, BMP4 20 ng/ml) was “increase”. The FOXL2 expression result in assay [1] (25 ng/ml follistatin, no further increase at higher concentrations) is on record as “marginal increase”; in assay [1] (higher concentrations of follistatin, BMP4 20 ng/ml), “marginal increase”.

B6: FGF18: fibroblast growth factor family member (protein, UniProt O76093 28-207, looked up)
Fibroblast growth factor 18: EENVDFRIHVENQTRARDDVSRKQLRLYQLYSRTSGKHIQVLGRRISARGEDGDKYAQLLVETDTFGSQVRIKGKETEFYLCMNRKGKLVGKPDGTSKECVFIEKVLENNYTALMSAKYSGWYVGFTKKGRPRKGPKTRENQQDVHFMKRYPKGQPELQKPFKYTTVTKRSRRIRPTHPA
Turning to B6, in assay [3], the “expression … compared to FGF2” value is reported as “comparable or higher” and the “expression … compared to corresponding medium” value is “comparable”.

B7: BMP7: BMP isoform in gonadal induction medium (protein, UniProt P18075 293-431, looked up)
Bone morphogenetic protein 7: STGSKQRSQNRSKTPKNQEALRMANVAENSSSDQRQACKKHELYVSFRDLGWQDWIIAPEGYAAYYCEGECAFPLNSYMNATNHAIVQTLVHFINPETVPKPCCAPTQLNAISVLYFDDSSNVILKKYRNMVVRACGCH
For B7, in assay [2], the “expression of bipotential gonadal markers (WT1, LHX9, GADD45G, GATA4) compared to BMP4” value is recorded as “comparable or higher” and the “expression of granulosa markers (FOXL2, NR1H4, KITLG) compared to BMP4” value is “comparable or higher”.
